T1: Fc Receptor-like 5 (FcRL5), full length, overexpressed on 3T3 or Raji cells (human, UniProt Q96RD9 16-977)
T1 construct: also called 3T3-FcRL5
T1 sequence: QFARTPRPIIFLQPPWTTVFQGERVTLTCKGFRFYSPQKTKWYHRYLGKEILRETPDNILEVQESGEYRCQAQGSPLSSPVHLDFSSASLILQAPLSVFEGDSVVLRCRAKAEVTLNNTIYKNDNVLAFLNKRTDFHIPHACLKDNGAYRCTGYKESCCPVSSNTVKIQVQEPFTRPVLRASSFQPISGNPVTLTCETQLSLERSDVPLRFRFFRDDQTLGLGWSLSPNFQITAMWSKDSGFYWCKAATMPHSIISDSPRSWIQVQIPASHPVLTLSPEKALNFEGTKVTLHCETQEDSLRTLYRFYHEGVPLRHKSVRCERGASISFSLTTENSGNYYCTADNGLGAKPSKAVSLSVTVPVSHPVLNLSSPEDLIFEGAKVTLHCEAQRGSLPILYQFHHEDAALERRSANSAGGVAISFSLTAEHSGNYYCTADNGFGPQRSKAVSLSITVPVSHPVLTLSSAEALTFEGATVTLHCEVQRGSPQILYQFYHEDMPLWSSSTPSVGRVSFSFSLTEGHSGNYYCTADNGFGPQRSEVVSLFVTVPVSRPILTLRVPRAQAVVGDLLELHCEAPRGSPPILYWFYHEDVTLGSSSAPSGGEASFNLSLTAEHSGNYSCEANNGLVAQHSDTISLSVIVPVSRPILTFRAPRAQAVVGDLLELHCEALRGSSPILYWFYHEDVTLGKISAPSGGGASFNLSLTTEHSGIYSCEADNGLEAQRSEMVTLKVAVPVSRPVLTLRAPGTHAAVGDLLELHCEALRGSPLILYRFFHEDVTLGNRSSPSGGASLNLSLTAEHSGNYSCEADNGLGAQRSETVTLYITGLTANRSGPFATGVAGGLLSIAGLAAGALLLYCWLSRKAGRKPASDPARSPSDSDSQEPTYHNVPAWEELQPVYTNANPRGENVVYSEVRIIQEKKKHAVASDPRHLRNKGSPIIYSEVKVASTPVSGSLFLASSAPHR

T2: FcRL3, overexpressed on 3T3 cells (UniProt Q96P31 18-734, limits assumed)
T2 construct: whole, on cells
T2 sequence (looked up): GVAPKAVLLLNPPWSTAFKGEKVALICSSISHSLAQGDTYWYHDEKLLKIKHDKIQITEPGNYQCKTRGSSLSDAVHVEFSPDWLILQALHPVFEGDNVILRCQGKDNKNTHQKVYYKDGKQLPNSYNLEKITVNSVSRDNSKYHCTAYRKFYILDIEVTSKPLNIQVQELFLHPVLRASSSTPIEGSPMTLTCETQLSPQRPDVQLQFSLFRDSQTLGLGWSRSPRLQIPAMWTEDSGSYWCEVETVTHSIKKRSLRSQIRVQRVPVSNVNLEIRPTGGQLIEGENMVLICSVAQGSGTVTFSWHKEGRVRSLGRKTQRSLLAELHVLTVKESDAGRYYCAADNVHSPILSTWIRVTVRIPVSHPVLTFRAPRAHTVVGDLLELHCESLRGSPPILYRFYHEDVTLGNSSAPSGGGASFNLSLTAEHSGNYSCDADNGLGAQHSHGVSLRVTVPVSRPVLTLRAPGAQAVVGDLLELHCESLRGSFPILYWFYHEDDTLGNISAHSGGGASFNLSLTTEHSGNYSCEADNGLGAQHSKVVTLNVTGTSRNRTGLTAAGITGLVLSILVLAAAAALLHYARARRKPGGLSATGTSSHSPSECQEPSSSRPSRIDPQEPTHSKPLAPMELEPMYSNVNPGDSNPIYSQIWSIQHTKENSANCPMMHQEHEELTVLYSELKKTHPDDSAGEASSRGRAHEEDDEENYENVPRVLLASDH

T3: FcRL4, overexpressed on 3T3 cells (UniProt Q96PJ5 20-515, limits assumed)
T3 construct: whole, on cells
T3 sequence (looked up): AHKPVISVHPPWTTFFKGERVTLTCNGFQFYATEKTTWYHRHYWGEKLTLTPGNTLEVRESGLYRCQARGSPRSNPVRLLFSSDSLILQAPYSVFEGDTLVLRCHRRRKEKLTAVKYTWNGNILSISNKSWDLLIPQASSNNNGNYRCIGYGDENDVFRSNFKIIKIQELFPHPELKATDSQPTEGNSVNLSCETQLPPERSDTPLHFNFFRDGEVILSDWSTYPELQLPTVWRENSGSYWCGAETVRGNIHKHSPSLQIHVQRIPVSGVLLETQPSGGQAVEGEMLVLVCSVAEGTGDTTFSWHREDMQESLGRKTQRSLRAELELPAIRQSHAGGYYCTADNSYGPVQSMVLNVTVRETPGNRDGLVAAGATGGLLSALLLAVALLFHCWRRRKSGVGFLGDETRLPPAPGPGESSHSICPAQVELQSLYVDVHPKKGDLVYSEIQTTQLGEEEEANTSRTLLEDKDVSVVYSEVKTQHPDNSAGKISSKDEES

T4: FcRL2, overexpressed on 3T3 cells (UniProt Q96LA5 20-508, limits assumed)
T4 construct: whole, on cells
T4 sequence (looked up): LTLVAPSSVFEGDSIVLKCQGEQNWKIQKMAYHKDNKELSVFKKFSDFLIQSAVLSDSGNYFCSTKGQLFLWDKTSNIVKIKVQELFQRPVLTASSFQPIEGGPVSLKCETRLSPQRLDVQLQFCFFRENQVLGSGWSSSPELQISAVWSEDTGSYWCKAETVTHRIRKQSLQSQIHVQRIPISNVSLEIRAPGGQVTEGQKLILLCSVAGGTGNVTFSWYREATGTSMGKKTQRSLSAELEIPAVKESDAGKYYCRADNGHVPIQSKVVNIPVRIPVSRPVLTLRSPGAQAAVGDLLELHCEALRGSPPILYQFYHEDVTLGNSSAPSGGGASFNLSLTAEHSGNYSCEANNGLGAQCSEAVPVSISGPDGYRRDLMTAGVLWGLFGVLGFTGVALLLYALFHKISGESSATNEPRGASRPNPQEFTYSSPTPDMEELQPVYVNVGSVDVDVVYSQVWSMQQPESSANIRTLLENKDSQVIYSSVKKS


How the values were obtained:
[1] = target: T1, Fc Receptor-like 5 (FcRL5), full …; experiment: phage clone screening on cells
Procedure: Once selected, positive scFv clones are further tested for their binding to FcRL5 (e.g., human FcRL5) on live 3T3 cell surfaces by flow cytometry. Briefly, phage clones are incubated with 3T3 cells over-expressing FcRL5. The cells are washed and then incubated with a mouse anti-M13 coat protein mAb. Cells are washed again and labeled with a PE-horse anti-mouse Ig prior to flow cytometry.
Phage′ display against FcRL5 was performed to enrich for scFv phage clones that bind to FcRL5 specifically. Screening was carried out on FcRL5 overexpressing 3T3 cells or 3T3 cells expressing FcRL1, 2, 3, 4 or 6 as a negative control (FIG. 2).

[2] = target: T2, FcRL3, overexpressed on 3T3 cells; experiment: phage clone on 3T3-FcRL3 cells
[3] = target: T3, FcRL4, overexpressed on 3T3 cells; experiment: phage clone on 3T3-FcRL4 cells
[4] = target: T4, FcRL2, overexpressed on 3T3 cells; experiment: phage clone on 3T3-FcRL2 cells

Binder | binding result [1] | binding result [2] | binding result [3] | binding result [4]
ET200-028 (scFv, screened as phage clone; entry is VL-linker-VH-His tag-HA tag) scFv: QSVLTQPPAASGTPGQRVTISCSGGVSNIGSGALNWYQQLPGTAPKLLIYSYNQRPSGVSDRFSGSRSATSASLAISGLQSEDEADYYCATWDDSVNGWVFGGGTKLTVLGSRGGGGSGGGGSGGGGSLEMAQVQLVQSGAEVKKPGDSVKVSCKPSGYNFLNYGINWVRQAPGQGLEWMGWISTYTGNTNYAQKLQGRVTFTTDTSTSTAYMEMRSLRSDDTAVYYCARDLYYYEGVDYWGQGTLVTVSSTSGQAGQHHHHHHGAYPYDVPDYAS | binds | no binding | no binding | no binding
ET200-031 (scFv, screened as phage clone; entry is VL-linker-VH-His tag-HA tag; also called ET200-31) scFv: SYVLTQPPSVSVAPGKTARITCGGNNIGSKSVHWYQQKPGQAPVLVIYYDSDRPSGIPERFSGSNSGNTATLTISRVEAGDEADYYCQVWDSSSDYVFGTGTKVTVLGSRGGGGSGGGGSGGGGSLEMAEVQLVETGGGLVKPGGSLRLSCAASGFTVSDYYMSWIRQAPGKGLEWISYISGSGNSIYYADSVKGRFTISRDNAKNSLDLQMTSLRAEDTAVYYCARSTKFDYWGQGTLVTVSSTSGQAGQHHHHHHGAYPYDVPDYAS | binds | no binding | no binding | no binding
ET200-002 (scFv, screened as phage clone; entry is VL-linker-VH-His tag-HA tag) scFv: NFMLTQPHSVSESPGKTVTISCTRSSGSIASNYVQWYQQRPGSAPTTVIYEDNQRPSGVPDRFSGSIDSSSNSASLTISGLKTEDEADYYCQSYDSSNSVVFGGGTKLTVLGSRGGGGSGGGGSGGGGSLEMAQVQLVQSGTEVKKPGASVRVACKASGYPFNKYDINWVRQAPGQGLEWMGGIIPIFRTTNYAQKFQGRVTITADESTSTAYMELSSLRSEDTAVYYCAREWFYWDIWGQGTLVTVSSTSGQAGQHHHHHHGAYPYDVPDYAS | binds | no binding | no binding | no binding
ET200-032 (scFv, screened as phage clone; entry is VL-linker-VH-His tag-HA tag) scFv: LPVLTQPPSASGTPGQRVTISCSGSSSNVGSYTVNWYRQLPGTAPTLLIYNNNQRPSGVPDRFSDSKSGTSASLTISGLQPEDEADYYCAAWDDRLGGYVFGTGTKVTVLGSRGGGGSGGGGSGGGGSLEMAEVQLVQSGAEVKKPGESLKISCKGSGYSFTNYWIGWVRQMPGKGLEWMGIIYPGDSDTRYSPSFQGQVTISADKSISTAYLQWSSLKASDTAMYYCARSTGSSHMSDEWGQGTLVTVSSTSGQAGQHHHHHHGAYPYDVPDYAS | binds | no binding | no binding | no binding
ET200-030 (scFv, screened as phage clone; entry is VL-linker-VH-His tag-HA tag) scFv: QSVVTQPPSVSGAPGQRVTISCTGSSSNIGAGYDVNWYQQFPGTAPKLLIYGNSNRPSGVPDRFSGSKSGTSASLAITGLQAEDEADYYCQSYDSSLSGSYVFGTGTKVTVLGSRGGGGSGGGGSGGGGSLEMAQMQLVQSGAEVKKPGASVKVSCKASGYTLTELSMHWVRQAPGKGLEWMGGFDPEDGETIYAQKFQGRVTMTEDTSTDTAYMELSSLRSEDTAVYYCARMSSMYYDWGQGTLVTVSSTSGQAGQHHHHHHGAYPYDVPDYAS | binds | no binding | no binding | no binding
ET200-029 (scFv, screened as phage clone; entry is VL-linker-VH-His tag-HA tag) scFv: QAVLTQPPSVSVAPGKTARVTCGGNNIGSESVHWYQQKPGQAPVLVIYYDTDRPSGIPERFSGSHSGTTATLTISRVEAGDEADYYCQVWDSSRDHVVFGGGTKLTVLGSRGGGGSGGGGSGGGGSLEMAQVQLVQSGGGVVQPGRSLRLSCAASGFTFSSYAMHWVRQAPGKGLEWVAVISYDGSNKYYADSVKGLFTISRDNSKNTLYLQMNSLRAEDTAVYYCARSYFTSGFYDYWGQGTLVTVSSTSGQAGQHHHHHHGAYPYDVPDYAS | binds | no binding | no binding | no binding
ET200-033 (scFv, screened as phage clone; entry is VL-linker-VH-His tag-HA tag) scFv: NFMLTQPHSVSESPGKTVTISCTGSSGSIASNYVQWYQQRPGSAPTTVIYEDNQRPSGVPDRFSGSIDSSSNSASLTISGLKTEDEADYYCQSYDSSNHWVFGGGTKLTVLGSRGGGGSGGGGSGGGGSLEMAQVQLQQWGAGLLKPSETLSLTCAVYGGSFSGYYWSWIRQPPGKGLEWIGEITHSGRSNYNPSLKSRVTISVDTSKNQFSLKLSSVTAADTAVYYCARSSIMSDYWGQGTLVTVSSTSGQAGQHHHHHHGAYPYDVPDYAS | binds | no binding | no binding | no binding
ET200-034 (scFv, screened as phage clone; entry is VL-linker-VH-His tag-HA tag) scFv: QSVLTQPPSVSGAPGQRVTISCTGSTSNIGAGYDVHWYQQLPGTAPKLLINNNRNRPSGVPDRFSGSKSGTSATLGITGLQTGDEADYYCGTWDGSLTGAVFGGGTKLTVLGSRGGGGSGGGGSGGGGSLEMAEVQLVQSGAEVKKPGSSVKVSCKASGGTFSSYAISWVRQAPGQGLEWMGGIIPIFGTANYAQKFQGRVTITADESTSTAYMELSSLRSEDTAVYYCARGSALDHYDRWGQGTLVTVSSTSGQAGQHHHHHHGAYPYDVPDYAS | binds | no binding | no binding | no binding
